In US20160102129A1 (Novo Nordisk, published 2016):
*1 amine or outer side, *2 acyl side, *3 side chain or, on linkers, in order; H or OH if unused. Where no end group is shown, it is not given here. Side-chain parts run from the residue outwards. [ ]: non-standard residue; d: D form. The star is where a group is joined. C20 diacid = O=C(O)CCCCCCCCCCCCCCCCCCC(=O)*; C18 diacid = O=C(O)CCCCCCCCCCCCCCCCC(=O)*; γGlu = O=C(O)[C@H](CCC(=O)[*:2])N[*:1]; Desaminohistidyl = O=C(CCc1c[nH]cn1)*; Ac4c = NC1(C(=O)O)CCC1; AEEA = NCCOCCOCC(=O)O; Aib = CC(C)(N)C(=O)O

B1: N^ε35-[(4S)-4-carboxy-4-[[2-[2-[2-[[(4S)-4-carboxy-4-[[2-[2-[2-[[(4S)-4-carboxy-4-[[2-[2-[2-[[(4S)-4-carboxy-4-[[(4S)-4-carboxy-4-(17-carboxyheptadecanoylamino) … (peptide)
peptide: XXHGTFTSDYSKYLEEQAAREFIAWLLKK
modifications: Imp (desamino-His) at 7; Acb at 8; Lys35 N-epsilon acylated with 17-carboxyheptadecanoyl-γGlu-γGlu-Ado-γGlu-Ado-γGlu-Ado-γGlu-; C-terminal amide (GLP-1(7-37) numbering)
B2: N^ε35-[(4S)-4-carboxy-4-[[2-[2-[2-[[(4S)-4-carboxy-4-[[2-[2-[2-[[(4S)-4-carboxy-4-[[2-[2-[2-[[(4S)-4-carboxy-4-[[(4S)-4-carboxy-4-(17-carboxyheptadecanoylamino) … (peptide)
peptide: XXHGTFTSDYSRYLEGRAAREFIAWLLRK
modifications: Imp (desamino-His) at 7; Acb at 8; Lys35 N-epsilon acylated with 17-carboxyheptadecanoyl-γGlu-γGlu-Ado-γGlu-Ado-γGlu-Ado-γGlu-; C-terminal amide (GLP-1(7-37) numbering)
B3: N^ε35-[(4S)-4-carboxy-4-[[2-[2-[2-[[(4S)-4-carboxy-4-[[2-[2-[2-[[(4S)-4-carboxy-4-[[2-[2-[2-[[(4S)-4-carboxy-4-[[(4S)-4-carboxy-4-(17-carboxyheptadecanoylamino) … (peptide)
peptide: XXHGTFTSDYSKYLERQAAREFIAWLLKK
modifications: Imp (desamino-His) at 7; Acb at 8; Lys35 N-epsilon acylated with 17-carboxyheptadecanoyl-γGlu-γGlu-Ado-γGlu-Ado-γGlu-Ado-γGlu-; C-terminal amide (GLP-1(7-37) numbering)
B4: N^ε35-[(4S)-4-carboxy-4-[[2-[2-[2-[[(4S)-4-carboxy-4-[[2-[2-[2-[[(4S)-4-carboxy-4-[[2-[2-[2-[[(4S)-4-carboxy-4-[[(4S)-4-carboxy-4-(17-carboxyheptadecanoylamino) … (peptide)
peptide: XXHGTFTSDYSKYLERRAAREFIAWLLKK
modifications: Imp (desamino-His) at 7; Acb at 8; Lys35 N-epsilon acylated with 17-carboxyheptadecanoyl-γGlu-γGlu-Ado-γGlu-Ado-γGlu-Ado-γGlu-; C-terminal amide (GLP-1(7-37) numbering)
B5: N^ε35-[(4S)-4-carboxy-4-[[2-[2-[2-[[(4S)-4-carboxy-4-[[2-[2-[2-[[(4S)-4-carboxy-4-[[2-[2-[2-[[(4S)-4-carboxy-4-[[(4S)-4-carboxy-4-(17-carboxyheptadecanoylamino) … (peptide)
peptide: XXHGTFTSDYSRYLEEQAAREFIAWLLRK
modifications: Imp (desamino-His) at 7; Acb at 8; Lys35 N-epsilon acylated with 17-carboxyheptadecanoyl-γGlu-γGlu-Ado-γGlu-Ado-γGlu-Ado-γGlu-; C-terminal amide (GLP-1(7-37) numbering)
B6: N^ε35-[(4S)-4-carboxy-4-[[2-[2-[2-[[(4S)-4-carboxy-4-[[2-[2-[2-[[(4S)-4-carboxy-4-[[2-[2-[2-[[(4S)-4-carboxy-4-[[(4S)-4-carboxy-4-(17-carboxyheptadecanoylamino) … (peptide)
peptide: XXHGTFTSDYSKYLEGRAAREFIAWLLKK
modifications: Imp (desamino-His) at 7; Acb at 8; Lys35 N-epsilon acylated with 17-carboxyheptadecanoyl-γGlu-γGlu-Ado-γGlu-Ado-γGlu-Ado-γGlu-; C-terminal amide (GLP-1(7-37) numbering)
B7: N^ε34-[(4S)-4-carboxy-4-[[(4S)-4-carboxy-4-[[(2S)-2-[[2-[[(2S)-4-carboxy-2-[[(2S)-2-[[2-(17-carboxyheptadecanoylamino)acetyl]amino]-3-hydroxypropanoyl]amino]but … (peptide)
peptide: [Desaminohistidyl][Aib]HGTFTSDVSKYLEEQAAREFIAWLLK([γGlu-γGlu-Ser-Gly-Glu-Ser-Gly-C18 diacid])T
notes: Named as peptide, not peptide amide (C-terminal acid)

Experiments:
human GLP-1 receptor [1] = target: T1, human GLP-1 receptor (human, UniProt P43220 24-463); assay: SPA displacement of [125I]GLP-1(7-36)NH2 from hGLP-1R BHK membranes
T1 construct: whole, on cells; reporter assay on whole cells
Experimental: The GLP-1 receptor binding of each derivatives were determined with competitive binding, displacing [¹²⁵I]GLP-1 bound to GLP-1 receptors expressed in cell membranes associated with wheat germ agglutinin (WGA) scintillation proximity assay (SPA) beads. Each derivative was added in a series of concentrations to isolated membranes comprising the human GLP-1 receptor and displacement of the labelled radioligand was monitored. The receptor binding was reported as the concentration at which half of the labelled ligand is displaced from the receptor, the IC⁵⁰ value.
1. For the receptor binding assay 50 μl of the assay buffer was added to each well of an assay plate. [0588] 2. Test compounds were serially diluted to give the following concentrations: 8×10EE-7 M, 8×10EE-8 M, 8×10EE-9 M, 8×10EE-10 M, 8×10EE-11 M, 8×10EE-12 M and 8×10EE-13 M. Twenty-five μl were added to appropriate wells in the assay plate. [0589] 3. Cell membrane aliquots were thawed and diluted to their working concentration. Fifty μl were added to each well in the assay plate. [0590] 4. WGA SPA beads were suspended in assay buffer at 20 mg/ml. The suspension was diluted to 10 mg/ml in assay buffer just prior to addition to the assay plate. Fifty μl were added to each well in the assay plate. [0591] 5. […] A 25 μl aliquot was reserved for measuring total counts/well. [0592] 6. The assay plate was incubated for 2 h at 30° C. [0593] 7. The assay plate was centrifuged for 10 min. [0594] 8. The assay plate was read in a Perkin Elmer TopCount NXT instrument.

human glucagon receptor [2] = target: T2, human glucagon receptor (human, UniProt P47871 26-477); assay: SPA displacement of [125I]-glucagon from human glucagon receptor BHK membranes
T2 construct: whole, on cells; reporter assay on whole cells
Experimental: 1. For the receptor binding assay 50 μl of the assay buffer was added to each well of an assay plate. [0603] 2. Test compounds were serially diluted to give the following concentrations: 8×10EE-7 M, 8×10EE-8 M, 8×10EE-9 M, 8×10EE-10 M, 8×10EE-11 M, 8×10EE-12 M and 8×10EE-13 M. Twenty-five μl were added to appropriate wells in the assay plate. [0604] 3. Cell membrane aliquots were thawed and diluted to their working concentration. Fifty μl were added to each well in the assay plate. [0605] 4. WGA SPA beads were suspended in assay buffer at 20 mg/ml. The suspension was diluted to 10 mg/ml in assay buffer just prior to addition to the assay plate. Fifty μl were added to each well in the assay plate. [0606] 5. […] A 25 μl aliquot was reserved for measuring total counts/well. […] 6. The assay plate was incubated for 2 h at 25° C. [0608] 7. The assay plate was centrifuged for 10 min at 1500 rpm. [0609] 8. The assay plate was read in a Perkin Elmer TopCount NXT instrument.

human glucagon receptor [3] = target: T2, human glucagon receptor; assay: cell-based or functional assay
human GLP-1 receptor [4] = target: T1, human GLP-1 receptor; assay: cell-based or functional assay

T2 sequence (P47871 26-477): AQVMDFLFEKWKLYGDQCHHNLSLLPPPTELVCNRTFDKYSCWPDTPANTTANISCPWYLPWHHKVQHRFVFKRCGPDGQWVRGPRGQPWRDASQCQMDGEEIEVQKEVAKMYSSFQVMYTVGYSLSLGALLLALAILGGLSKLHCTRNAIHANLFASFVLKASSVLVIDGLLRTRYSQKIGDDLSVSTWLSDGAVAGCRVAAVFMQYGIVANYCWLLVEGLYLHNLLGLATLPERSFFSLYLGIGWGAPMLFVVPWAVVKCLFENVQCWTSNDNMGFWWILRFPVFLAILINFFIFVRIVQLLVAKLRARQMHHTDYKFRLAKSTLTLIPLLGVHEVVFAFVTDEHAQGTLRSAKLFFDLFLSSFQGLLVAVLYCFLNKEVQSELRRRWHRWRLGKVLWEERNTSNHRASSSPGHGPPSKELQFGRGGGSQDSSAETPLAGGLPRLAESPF

Binder | IC50 (human GLP-1 receptor [1]) [nM] | IC50 (human glucagon receptor [2]) [nM] | EC50 GlucagonR [pM], CRE luciferase reporter gene assay (human glucagon receptor [3]) [pM] | EC50 GLP-1R [pM], CRE luciferase reporter gene assay (human GLP-1 receptor [4]) [pM]
[Desaminohistidyl][Aib]HGTFTSDVSKYLEEQAAREFIAWLLK([Ado-Ado-γGlu-C18 diacid])T-NH2 | 0.7 | 20.3 | 83 | 6
[Desaminohistidyl]AHGTFTSDVSRYLEEQAARK([AEEA-AEEA-γGlu-γGlu-γGlu-C18 diacid])FIAWLLR | 2.2 | 126 | 1290 | 8
[Desaminohistidyl][Aib]HGTFTSDVSKYLEEQAAREFIAWLIK([Ado-Ado-γGlu-γGlu-C18 diacid])T-NH2 | 0.2 | 11.8 | 106 | 18.3
B1 | 1.4 | 6.9 | 78 | 3
B2 | 6.8 | 36.7 | 226 | 18.5
[Desaminohistidyl][Aib]HGTFTSDVSKYLEAQAAREFIAWLLK([γGlu-γGlu-Ado-γGlu-γGlu-C18 diacid])T-NH2 | 0.6 | 1.7 | 21 | 3
[Desaminohistidyl][Ac4c]HGTFTSDVSKYLEEQAAREFIAWLLKK([Gly-Ser-Glu-Gly-Ser-γGlu-γGlu-C18 diacid])-NH2 | 0.1 | 43.9 | 163 | 2
B3 | 2.3 | 11.7 | 84 | 7
[Desaminohistidyl][Ac4c]HGTFTSDYSKYLEEQAAREFIAWLLKK([Gly-Ser-Glu-Gly-Ser-γGlu-γGlu-C18 diacid])-NH2 | 0.7 | 16 | 117 | 5.7
[Desaminohistidyl][Aib]HGTFTSDVSRYLEGQAAREFIAWLLK([Gly-Ser-Glu-Gly-Ser-γGlu-γGlu-C18 diacid])T-NH2 | 0.9 | 8.9 | 143 | 17
[Desaminohistidyl][Ac4c]HGTFTSDVSKYLEGRAAREFIAWLLK([Gly-Ser-Glu-Gly-Ser-γGlu-γGlu-C18 diacid])T-NH2 | 0.3 | 7.2 | 28 | 12
B4 | 1.8 | 8.6 | 54 | 8
[Desaminohistidyl][Aib]HGTFTSDVSRYLEEQAAREFIAWLLK([Gly-Ser-Glu-Gly-Ser-γGlu-γGlu-C18 diacid])T-NH2 | 0.5 | 3.8 | 60 | 6
B5 | 0.9 | 5.6 | 71 | 3
B6 | 7.3 | 22.5 | 222 | 16
[Desaminohistidyl][Aib]HGTFTSDVSRYLEEQAARK([AEEA-AEEA-γGlu-γGlu-γGlu-C18 diacid])FIAWLLR | 2.9 | 21.2 | 143 | 7
B7 | 2.3 | 11.9 | 84.5 | 5.5
[Desaminohistidyl]AHGTFTSDVSKYLEGRAAREFIAWLLK([Ado-Ado-γGlu-γGlu-γGlu-C18 diacid])T-NH2 | 1 | 25.9 | 229 | 8
[Desaminohistidyl][Aib]HGTFTSDVSKYLEEQAAREFIAWLLK([Gly-Ser-Glu-Gly-Ser-γGlu-γGlu-C20 diacid])T-NH2 | 0.4 | 6 | 111 | 5
